Where two headings read alike, the source gives them in different places.
Tests used:
[1] = biological target: T1, human TNFα (human, UniProt P01375 77-233); experiment: cell-based or functional assay
[2] = biological target: T1, human TNFα
[3] = biological target: T1, human TNFα; experiment: cell-based or functional assay; remark: listed apart in the source
[4] = biological target: rhesus TNFα (rhesus, UniProt P48094 77-233); experiment: cell-based or functional assay
[5] = biological target: T1, human TNFα; experiment: cell-based or functional assay; remark: listed apart in the source
[6] = biological target: T1, human TNFα; remark: listed apart in the source
[7] = biological target: T1, human TNFα; remark: listed apart in the source
[8] = biological target: T1, human TNFα; experiment: ELISA, biotinylated TNFα on neutravidin, anti-myc detection; 50% binding
[9] = biological target: T1, human TNFα; remark: listed apart in the source
[10] = biological target: T1, human TNFα; experiment: cell-based or functional assay; remark: listed apart in the source
[11] = biological target: T1, human TNFα; experiment: competition ELISA, biotinylated TNFα (10 ng/ml) pre-incubated with nanobody, binding to coated Enbrel; 50% inhibition
[12] = biological target: T2, mouse serum albumin (mouse, UniProt P07724 25-608)
T2 construct: On the Biacore chip; also called mouse albumin

[13] = biological target: T3, rhesus serum albumin (rhesus, UniProt Q28522 17-600)
T3 construct: On the Biacore chip; also called rhesus albumin

[14] = biological target: T2, mouse serum albumin; remark: listed apart in the source
[15] = biological target: T4, human serum albumin (human, UniProt P02768 25-609)
T4 construct: On the Biacore chip; also called human albumin

[16] = biological target: Protein A (UniProt P38507 37-477)

T1 sequence (P01375 77-233 limits assumed): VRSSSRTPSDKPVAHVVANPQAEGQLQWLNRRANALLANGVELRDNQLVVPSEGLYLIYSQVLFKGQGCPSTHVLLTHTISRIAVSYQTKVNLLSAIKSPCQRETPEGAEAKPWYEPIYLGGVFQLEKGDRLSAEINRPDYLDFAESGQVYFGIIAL
T3 sequence (Q28522 17-600 limits assumed): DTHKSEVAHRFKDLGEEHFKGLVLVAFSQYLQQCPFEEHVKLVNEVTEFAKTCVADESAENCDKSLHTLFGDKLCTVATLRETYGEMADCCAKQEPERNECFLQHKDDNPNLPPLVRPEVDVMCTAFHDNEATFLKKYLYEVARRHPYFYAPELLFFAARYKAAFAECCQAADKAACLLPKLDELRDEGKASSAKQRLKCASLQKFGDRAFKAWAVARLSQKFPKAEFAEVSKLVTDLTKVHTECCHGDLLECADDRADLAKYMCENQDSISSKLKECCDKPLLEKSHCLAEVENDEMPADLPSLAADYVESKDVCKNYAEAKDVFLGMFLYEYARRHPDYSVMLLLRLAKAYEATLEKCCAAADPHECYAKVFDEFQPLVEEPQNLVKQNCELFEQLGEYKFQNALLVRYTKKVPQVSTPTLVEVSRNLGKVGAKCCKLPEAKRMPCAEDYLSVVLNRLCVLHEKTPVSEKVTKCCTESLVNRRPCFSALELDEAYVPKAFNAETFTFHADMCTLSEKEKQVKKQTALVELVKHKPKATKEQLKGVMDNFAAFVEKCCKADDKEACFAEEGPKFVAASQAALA
T2 sequence (P07724 25-608 limits assumed): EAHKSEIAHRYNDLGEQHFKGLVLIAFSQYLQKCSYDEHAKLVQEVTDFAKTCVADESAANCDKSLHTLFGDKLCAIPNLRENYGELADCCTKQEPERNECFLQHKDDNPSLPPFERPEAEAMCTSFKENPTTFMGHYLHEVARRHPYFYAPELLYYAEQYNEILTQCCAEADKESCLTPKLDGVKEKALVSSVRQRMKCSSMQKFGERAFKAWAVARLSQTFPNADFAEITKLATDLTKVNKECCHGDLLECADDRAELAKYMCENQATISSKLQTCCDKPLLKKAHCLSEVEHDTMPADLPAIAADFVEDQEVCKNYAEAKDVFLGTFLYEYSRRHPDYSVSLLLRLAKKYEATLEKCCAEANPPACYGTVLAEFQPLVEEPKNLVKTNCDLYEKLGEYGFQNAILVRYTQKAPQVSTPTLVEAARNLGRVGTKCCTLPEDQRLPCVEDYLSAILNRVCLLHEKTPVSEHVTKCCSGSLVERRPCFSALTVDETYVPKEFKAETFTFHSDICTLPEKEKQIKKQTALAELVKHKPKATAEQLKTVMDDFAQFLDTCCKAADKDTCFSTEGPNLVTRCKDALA
Chain of rhesus TNFα (P48094 77-233 limits assumed): as the sequence (P01375 77-233 limits assumed) above, with R44T, T72N, R138L counted along it

B1: PMP1G5 (TNF2) (VHH)
VHH: QVQLVESGGGLVQAGGSLRLSCAASGRTFSEPSGYTYTIGWFRQAPGKEREFVARIYWSSGLTYYADSVKGRFTISRDIAKNTVDLLMNSLKPEDTAVYYCAARDGIPTSRSVGSYNYWGQGTQVTVSS
notes: also called WT TNF2; not shown: C-terminal c-myc tag and (His)6 tag coded by vector pAX051
EC50 in nM (mean); L929s + Act D cytotoxicity assay, human TNFa @ 0.5 ng/ml [1]: 1.41 nM | koff [2]: 0.00085 s⁻¹ | EC50 in nM (mean); L929s + Act D cytotoxicity assay, human TNFa @ 0.5 ng/ml [3]: 1.41 nM | EC50 in nM (mean); L929s + Act D cytotoxicity assay, rhesus TNFα @ 0.5 ng/ml [4]: > 50 nM | EC50 in nM (mean); L929s + Act D cytotoxicity assay, human TNFα @ 0.5 ng/ml [5]: 1.41 nM | koff [6]: 0.00083 s⁻¹ | koff [7]: 0.00133 s⁻¹ | EC50 [8]: 0.02 µg/mL | koff [9]: 0.000359 s⁻¹ | EC50 in nM; alphaKYM cell assay (10000 c/w), human TNFa @ 1 ng/ml [10]: 4.24 nM | IC50 [11]: 3.5 µg/mL

B2: PMP6A8 (ALB2) (VHH)
VHH: AVQLVESGGGLVQGGGSLRLACAASERIFDLNLMGWYRQGPGNERELVATCITVGDSTNYADSVKGRFTISMDYTKQTVYLHMNSLRPEDTGLYYCKIRRTWHSELWGQGTQVTVSS
notes: Class C serum albumin nanobody; not shown: C-terminal c-myc tag and (His)6 tag coded by vector pAX051
difference in affinity for human/rhesus versus mouse serum albumin [12]: 400 fold | Kd [13]: 0.036 nM | koff [13]: 7.12e-05 s⁻¹ | kon [13]: 1.94e+06 M⁻¹ s⁻¹ | Kd [14]: 15.7 nM | koff [14]: 0.00307 s⁻¹ | kon [14]: 195000 M⁻¹ s⁻¹ | Kd [15]: 0.092 nM | koff [15]: 7.52e-05 s⁻¹ | kon [15]: 815000 M⁻¹ s⁻¹ | binding result [16]: no binding (tested: 10 uM)
